Reference: patent US20230272117A1 (published 2023)

Columns and labels:
cynomolgus monkey ABCC1 [1] = target: T1, cynomolgus monkey ABCC1 (UniProt Q864R9 1-1531); assay: FACS titration on C6 cells; C6 cells
[2] = target: T2, human ATP Binding Cassette Subfamily C Member 1 (ABCC1) (UniProt P33527 1-1531); assay: FACS titration on C6 cells
[3] = target: T2, human ATP Binding Cassette Subfamily C …; assay: FACS titration on C6-hC1 cells
cynomolgus monkey ABCC1 [4] = target: T1, cynomolgus monkey ABCC1; assay: FACS titration on C6-cC1 cells
[5] = target: T2, human ATP Binding Cassette Subfamily C …; assay: FACS titration on H69AR cells

T1 sequence (Q864R9 whole entry): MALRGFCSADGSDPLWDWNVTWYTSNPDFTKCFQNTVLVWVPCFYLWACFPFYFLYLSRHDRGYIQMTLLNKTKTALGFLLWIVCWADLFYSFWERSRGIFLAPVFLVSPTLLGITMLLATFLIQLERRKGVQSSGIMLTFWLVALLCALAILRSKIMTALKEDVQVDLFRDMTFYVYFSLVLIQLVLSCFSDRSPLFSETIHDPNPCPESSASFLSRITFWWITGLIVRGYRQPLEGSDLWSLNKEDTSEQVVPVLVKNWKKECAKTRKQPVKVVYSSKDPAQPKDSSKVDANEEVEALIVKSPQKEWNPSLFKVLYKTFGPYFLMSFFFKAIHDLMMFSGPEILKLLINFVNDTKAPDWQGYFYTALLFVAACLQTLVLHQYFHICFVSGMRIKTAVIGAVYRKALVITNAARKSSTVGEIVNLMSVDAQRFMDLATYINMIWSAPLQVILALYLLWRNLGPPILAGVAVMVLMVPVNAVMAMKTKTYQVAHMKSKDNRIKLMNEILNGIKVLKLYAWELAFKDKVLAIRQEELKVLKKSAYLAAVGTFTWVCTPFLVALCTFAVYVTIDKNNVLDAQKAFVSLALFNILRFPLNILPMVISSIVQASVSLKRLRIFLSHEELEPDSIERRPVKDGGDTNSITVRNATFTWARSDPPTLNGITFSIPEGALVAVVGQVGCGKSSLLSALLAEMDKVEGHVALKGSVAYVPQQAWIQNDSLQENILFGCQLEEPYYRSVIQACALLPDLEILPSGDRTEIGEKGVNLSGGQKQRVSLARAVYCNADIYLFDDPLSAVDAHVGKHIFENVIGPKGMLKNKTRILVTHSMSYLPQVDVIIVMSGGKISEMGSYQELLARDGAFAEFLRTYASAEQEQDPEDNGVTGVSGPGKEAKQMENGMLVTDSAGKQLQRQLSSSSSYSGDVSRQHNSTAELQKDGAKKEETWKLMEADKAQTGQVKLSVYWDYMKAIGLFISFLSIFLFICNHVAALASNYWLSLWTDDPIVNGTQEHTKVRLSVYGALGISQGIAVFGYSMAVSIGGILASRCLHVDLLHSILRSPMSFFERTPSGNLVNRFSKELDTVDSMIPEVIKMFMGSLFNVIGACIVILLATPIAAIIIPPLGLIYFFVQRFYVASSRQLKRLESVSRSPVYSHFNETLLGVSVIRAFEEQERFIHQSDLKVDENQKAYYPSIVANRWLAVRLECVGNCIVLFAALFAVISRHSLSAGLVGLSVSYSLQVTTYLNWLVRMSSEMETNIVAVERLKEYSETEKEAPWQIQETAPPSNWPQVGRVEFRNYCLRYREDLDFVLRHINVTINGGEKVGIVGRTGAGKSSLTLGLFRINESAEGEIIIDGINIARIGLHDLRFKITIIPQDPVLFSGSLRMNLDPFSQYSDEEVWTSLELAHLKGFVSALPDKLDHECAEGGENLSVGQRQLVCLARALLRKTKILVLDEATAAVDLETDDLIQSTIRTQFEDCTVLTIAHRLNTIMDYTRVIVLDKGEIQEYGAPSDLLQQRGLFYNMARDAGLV

Binder | Kd [2] [nM] | Kd [3] [nM] | Kd [5] [nM] | Kd (cynomolgus monkey ABCC1 [4]) [nM] | other results
C1.879A (antibody, V domains shown) VH: EVQLTESGPGLVQPSQTLSLTCTVSGFSLTSNGVSWVRQPPGKGLEWIAAISSGGSTYYNSAFKSRLSISRHTSKSQVLLNMNSLQTEDTAMYFCARHRGYYWSNWGYFDYWGQGVMVTVSS VL: DIQLTQSPSLLSASVGDRVTLSCKGSQNINNYLAWYQQKVGEAPKLLIYKTNSLQTGIPSRFSGSGSGTDYTLTISSLHSEDLATYYCYQYNNGYTFGAGTKLELKR | – | – | – | – | Kd (cynomolgus monkey ABCC1 [1]): 27.2 nM
C1.830B (antibody, V domains shown) VH: EVQLKESGPGLVRPSQTLSLTCSVSGFSLTNYNVHWVRQPTGKGLEWMGIIWTGGYTDYNSDLKSRLSITRDTSKSQVFLKMNGLQTEDVATYYCARERHTMGITKSWYFDYWGQGASVTVSS VL: DILMTQSPASLSASLGETISIECLASEGIFSYLGWYQQKPGKSPQLLIYGANSLQAGVPSRFSGSGSGTQYSLKISSMQPEDEGDYFCQQSYKFPVTFGSGTKLELK | – | 14.4 | – | 8.6 | –
C1.777a (antibody, V domains shown) VH: EVQLVESGPGLVQPSQTLSLTCTVSGFSLTNNGVSWVRQPPGKGLEWIAAISSGGSIYYNLAFKSRLSISRNTSKGHVLLKMNSLQTEDTAMYFCVRHRGYYGFNWGYFDYWGQGVMVTVSS VL: NIQLTQSPSLLSASVGDRVTLSCKGSQNINNYLAWYQQKLGEAPKLLIYKTNSLQTGIPSRFSGSGSGTDYTLTISSLHSEDLATYYCYQYNDGYTFGAGTKLELK | 41.2 | – | 4.2 | – | –
C1.773a (antibody, V domains shown) VH: EVQLKESGPGLVQPSQTLSLTCTVSGFSLTSNGVSWVRQPPGKGLEWIAAISSGGSIYYNSAFKSRLSISRHTSKSQVLLKMNSLQTEDTAMYFCARHRGYYGYNWGYFDYWGQGASVTVSS VL: NIQLTQSPSLLSASVGDRVTLSCKGSQNINNYLAWYQQKLGEAPKLLIYKTNSLQTGIPSRFSGSGSGTDYTLTISSLHSEDLATYYCSQYNNGYTFGAGTKLEIK | 33 | – | 3.2 | – | –
C1.845 (antibody, V domains shown) VH: EVQLVESGPGLVQPSQTLSLTCTVSGFSLTNNGVSWVRQPPGKGLEWIAAISSGGSIYYNLAFKSRLSISRNTSKGQVLLKMNSLQTEDTAMYFCARHRGYYGYNWGYFDYWGQGASVTVSS VL: NIQLTQSPSLLSASVGDRVTLSCKGSQNINNYLAWYQQKLGEAPKLLIYKTNSLQTGIPSRFSGSGSGSDYTLTISSLHSEDLATYYCYQYNDGYTFGAGTKLELK | – | 21.8 | – | 20.1 | –
C1.778b (antibody, V domains shown) VH: EVQRKESGPGLVQPSQTLSLTCTVSGFSLTNNGVSWVRQPPGKGLEWIAAISSGGSIYYNSAFKSRLSISRITSKSQVLLKMNSLQTEDTAMYFCARHRGYYGYNWGYFDYWGQGVMVTVSS VL: NIQLTQSPSLLSASVGDRVTLSCKGSQNIDNYLAWYQQKLGEPPKLLIYKTNSLQTGIPSRFSGSGSGTDYTLTISSLHSEDLATYYCYQYNNGYTFGAGTKLELKR | 667 | – | 8.7 | – | Kd (cynomolgus monkey ABCC1 [1]): 28.2 nM
C1.784a (antibody, V domains shown) VH: EVKLEESGPGLVQPSQTLSLTCTVSGFSLTNNGVSWVRQPPGKGLEWIAAMSSGGNIYYNSAFKSRLSISRDTSKSQVLLKMSSLQTEDTAMYFCGRHRGYYWYNWGFFDYWGQGASVTVSS VL: NIQLTQSPSLLSASVGDRVTLSCKGSQNINNYLAWYQQKLGEAPKLLIYKTNSLQTGIPSRFSGSGSGTDFTLTISSLHSEDLATYYCCQYNNGYTFGAGTKLELK | 38.2 | – | 7 | – | –
C1.841 (antibody, V domains shown) VH: EVQLLESGPGLVQPSQTLSLTCTVSGFSLTNNGVSWVRQPPGKGLEWVAAMSSGGNIYYNSAFKSRLSISRHTSKSQVLLKMNSLQTEDTAMYFCARHRGYYGYNWGYFDYWGQGVMVTVSS VL: NIQLTQSPSLLSASVGDSVSLRCKGSQNIYNYLAWYQQKLGEAPKLLIYKTNNLQTGIPSRFSGSGSGTDYTLTISSLNSEDLATYYCCQYNNGYTFGAGTKLELK | – | 103 | – | 42.3 | –
C1.855 (antibody, V domains shown) VH: EVQLKESGPGLVQPSQTLSLTCTVSGFSLTSNGVSWVRQPPGKGLEWIAAISNGGNIYYNSAFKSRLSISRHTSKSQVLLKMNSLQTEDTAMYFCARHRGYYGYNWGYFDYWGQGASVTVSS VL: NIQLTQSPSLLSASVGDRVTLSCKGSQNINNYLGWYQQKLGEAPRLLIYKTNSLQTGIPSRFSGSGSGTDYTLTISSLHSEDLATYYCYQYNNGYTFGAGTKLELK | – | > 1000 | – | 279 | –
C1.876 (antibody, V domains shown) VH: QVQLKESGPGLVQPSQTLSLTCTVSGFSLTNNGVSWVRQPPGKGLEWIAAMSSGGSIYYNSAFKSRLSISRHTSKSQVLLQMNSLQTEDTAMYFCTRHRGYYGYNWGYFDYWGQGVMVTVSS VL: DIQLTQSPSLLSASVGDSVSLRCKGSQNIYNYLAWYQQKLGEAPKLLIYKTNNLQTGIPSRFSGSGSGTDYTLTISSLNSEDLATYYCCQYNNGYTFGAGTKVELK | – | – | – | – | Kd (cynomolgus monkey ABCC1 [1]): 3.7 nM
C1.877 (antibody, V domains shown) VH: EVQLTESGPGLVQPSQTLSLTCTVSGFSLTSNGVSWVRQPPGKGLEWIAAISSGGSTYYNSAFKSRLSISRHTSKSQVLLNMNSLQTEDTAMYFCARHRGYYWSNWGYFDYWGQGVMVTVSS VL: DIVMTQSPSLLSASVGDRVTLSCKGSQNINNYLAWYQQKLGEAPKLLIYETNSLQTGIPSRFSGSGSGTDYTLTLSSLHSEDLATYYCYQYNDGYTFGAGTKLEIK | – | – | – | – | Kd (cynomolgus monkey ABCC1 [1]): 66.8 nM
C1.847 (antibody, V domains shown) VH: EVQLKESGPGLVQPSQTLSLTCTVSGFSLTNNGVSWVRQPPGKGLEWIAAISSGGNIYHNSALKSRLSISRNTAQSQVLLKMNSLQTEDTAMYFCARHRGYYGYNWGYFDYWGQGTLVTVSS VL: NIQLTQSPSLLSASVGDRVTLSCKGSQNIYNYLAWYQQKLGEAPKLLIYKTNSLQTGIPSRFSGSGSGTDYTLTISSLHSEDLATYYCCQYNNGYTFGAGTKLELK | – | 21.7 | – | 23.3 | –
C1.844 (antibody, V domains shown) VH: EVQLKESGPGLVQPSQTLSLTCTVSGFSLTSNGVIWVRQPPGKGLEWIAAISSGGNIYYNSGLKSRLGISRDTSKSQVFLKMNSLQTEDTAIYFCTRARGTTTAYVMDAWGQGASVTVSS VL: DIVMTQSPSSLAVSAGETVNINCKSSQSLLYSVNQKNYLAWYQQKPGQSPKLLIYWASTRQSGVPDRFIGSGSGTDFTLTISSVQAEDLAIYYCQQYYDTLMKMFGAGTKLELK | – | 65.1 | – | 34.1 | –

Now from value to binder, other results behind:

Kd [2] [nM] | Kd [3] [nM] | Kd [5] [nM] | Binder | Kd (cynomolgus monkey ABCC1 [4]) [nM] | other results
116 | – | – | C1.781A (antibody, V domains shown) VH: EVQLTESGPGLVQPSQTLSLTCTVSGFSLTSNGVSWVRLPPGKGLEWIAAISSGGNIYYNSALKSRLSISRDTSKSQVFLKMNSLQTEDTAIYFCTRERGWNYPGITNGYYFDYWGQGTSVTVSS VL: DIVLTQSPSLLSASVGDRVILSCKAGQKINNYLAWYQQKLGEAPKLLIYNANSLQTGIPSRFSGSGSGTDYTLTISSLQPEDVATYFCQQYNSWYTFGAGTKLEIK | – | –
– | – | 8.3 | C1.786a (antibody, V domains shown) VH: EVQLTESGLGLVQPSQTLSLTCSVSGFSLTSYNVHWVRQPTGKGLEWMGVIWTGGYTDSNSPLKSRLSITRDTSKSQVFLKMNSLQSEDIATYYCARERHTMGITKSWYFDYWGQGVMVTVSS VL: DVQMTQSPASLSASLGETISIECLASEGIFSYLAWYQQKPGKSPQLLIYGANTLQAGVPSRFSGSGSGTQYSLKISSMQPEDEGDYFCQQSYKFPVTFGSGTKLELK | – | –
– | 98 | – | C1.851 (antibody, V domains shown) VH: EVQLKESGPGLVQPSQTLSLTCTVSGFSLTNNGVSWIRQPPGKGLEWIAAISSGGNIYYNSAFKSRLSISRNTSKRQVLLKMNSLQTEDTAMYFCARHRGYYGYNWGYFDYWGQGASVTVSS VL: NIQLTQSPSLLSASVGDRVTLSCKGSQNINNYLAWYQQKLGEAPKLLIYKTNSLQTGIPSRFSGSGSGTDYTLTISSLHSEDLATYYCCQYNNGYTFGAGTKLELKR | 28 | –
83.3 | – | 10.1 | C1.779B (antibody, V domains shown) VH: EVKLLESGPGLVQPSQTLSLTCTVSGFSLTSNGVIWVRQPPGKGLEWIAAISSGGNIYYNSGLKSRLGISRDTSKSQVFLKMNSLQTEDTAIYFCTRARGTTTAYFMDAWGQGASVTVSS VL: ETVMTQSPSSLAVSAGETVTMNCKSSQSLLYSGNQKNYLAWYQQKPGQSPKLLIYWASTRQSGVPDRFIGSGSGTDFTLTISSVQAEDLAIYYCQQYYDTLMKMFGAGTKLEIK | – | –
133 | – | 10 | C1.309 (antibody, V domains shown) VH: QVQLKESGPGLVAPSQSLSITCTVSGFSLTSYDITWIRQPPGKGLEWLGVIWTGGGTNYNSAFMSRLSISKDSSKSQVFLKMNSLRTDDTAIYYCVRDLRYGYDGFWYFDVWGAGTTVTVSS VL: DVVMTQTPLSLPVSLGDQASISCRSSQSIVHSNGNTYLEWYLQKPGQSPKLLIYKVSNRFSGVPDRFSGSGTGTDFTLKISRVEAEDLGVYYCFQGSHVPRTFGGGTKLEIK | – | –
158 | – | – | C1.505.hu11 (antibody, V domains shown) VH: EVQLQESGPGLVKPSETLSLTCTVSGFSLTSNGVSWVRQPPGKGLEWIAAISSGGSTYYNSAFKSRLTISRDTSKNQVSLKLSSVTAADTAVYYCARHRGYYWSNWGYFDYWGQGTLVTVSS VL: DIQLTQSPSSLSASVGDRVTITCKGSQNINNYLAWYQQKPGKAPKLLIYKTNSLQTGIPSRFSGSGSGTDYTLTISSLQPEDFATYYCCQYNDGYTFGQGTKLEIK | – | –
